# Test results reported in patent USRE50631 (VELOSBIO, dated 2025).
# B1: ADC-A (antibody, human IgG1, kappa, V domains shown)
# VH: QVQLQESGPGLVKPSQTLSLTCTVSGYAFTAYNIHWVRQAPGQGLEWMGSFDPYDGGSSYNQKFKDRLTISKDTSKNQVVLTMTNMDPVDTATYYCARGWYYFDYWGHGTLVTVSS
# VL: DIVMTQTPLSLPVTPGEPASISCRASKSISKYLAWYQQKPGQAPRLLIYSGSTLQSGIPPRFSGSGYGTDFTLTINNIESEDAAYYFCQQHDESPYTFGEGTKVEIKR
# modifications: MC-VC-PAB-MMAE bonded via cysteine residues of the antibody (chain and positions not stated); MC-VC-PAB-MMAE bonded via cysteine residues of the antibody (chain and positions not stated); DAR 3.89 to 5.09
# notes: Antibody-drug conjugate of Ab1; also called Ab1-MC-VC-PAB-MMAE
# B2: ADC-R (antibody, human IgG1, kappa, V domains shown)
# VH: B1 VH
# VL: B1 VL
# modifications: deglycosylated with PNGase F; azido-PEG3-amine put on glutamine residues by microbial transglutaminase, then DBCO-PEG4-VC-PAB-DMEA-PNU-159682 via a triazole (chain and positions not stated); DAR 2.1
# notes: also called Ab1-DBCO-PEG4-VC-PAB-DMEA-PNU-159682
# B3: ADC-Q (antibody, human IgG1, kappa, V domains shown)
# VH: B1 VH
# VL: B1 VL
# modifications: deglycosylated with PNGase F; azido-PEG3-amine put on glutamine residues by microbial transglutaminase, then DBCO-(PEG2-VC-PAB-MMAE)2 via a triazole (chain and positions not stated); DAR 4.4
# notes: also called Ab1-DBCO-(PEG2-VC-PAB-MMAE)2
# Experiments:
# [1] = molecular target: T1, human receptor tyrosine kinase like orphan receptor 1 (ROR1) (human, UniProt Q01973 30-937); assay: flow cytometry on Jeko-1 cells (FIG. 3A)
# T1 construct: whole, on cells; Target in all assays is endogenous ROR1 on human tumor cell lines; the cell line is named under assay; also called cell surface ROR1
# T1 sequence (Q01973 30-937): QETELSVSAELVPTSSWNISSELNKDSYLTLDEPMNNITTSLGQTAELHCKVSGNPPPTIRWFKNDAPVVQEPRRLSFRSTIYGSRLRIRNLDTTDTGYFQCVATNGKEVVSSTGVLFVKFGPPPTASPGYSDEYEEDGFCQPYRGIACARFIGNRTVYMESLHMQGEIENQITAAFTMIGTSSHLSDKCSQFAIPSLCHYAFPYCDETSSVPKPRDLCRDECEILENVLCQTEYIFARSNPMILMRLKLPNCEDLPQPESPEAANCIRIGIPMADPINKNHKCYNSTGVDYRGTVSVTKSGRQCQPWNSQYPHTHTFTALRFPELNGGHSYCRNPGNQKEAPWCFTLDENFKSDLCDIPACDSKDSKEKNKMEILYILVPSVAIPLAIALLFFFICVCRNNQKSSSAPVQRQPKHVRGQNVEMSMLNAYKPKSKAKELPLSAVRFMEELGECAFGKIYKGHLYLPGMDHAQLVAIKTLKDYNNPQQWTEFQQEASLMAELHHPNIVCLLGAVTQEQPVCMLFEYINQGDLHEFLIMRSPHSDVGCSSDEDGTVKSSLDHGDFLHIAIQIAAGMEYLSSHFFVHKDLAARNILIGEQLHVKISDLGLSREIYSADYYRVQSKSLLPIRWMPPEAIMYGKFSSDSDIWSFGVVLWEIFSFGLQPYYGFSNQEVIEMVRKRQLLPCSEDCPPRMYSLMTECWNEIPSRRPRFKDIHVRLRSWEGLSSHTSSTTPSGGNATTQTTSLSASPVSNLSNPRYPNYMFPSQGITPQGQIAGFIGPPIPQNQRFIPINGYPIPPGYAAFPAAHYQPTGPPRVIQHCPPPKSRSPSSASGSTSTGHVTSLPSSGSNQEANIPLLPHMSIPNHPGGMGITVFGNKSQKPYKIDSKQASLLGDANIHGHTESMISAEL
# [2] = molecular target: T1, human receptor tyrosine kinase like …; assay: binding to MDA-MB-231 cells; column 'ADC-A Binding KD (nM)', method not described
# [3] = molecular target: T1, human receptor tyrosine kinase like …; assay: binding to Jeko-1 cells; column 'ADC-A Binding KD (nM)', method not described
# [4] = molecular target: T1, human receptor tyrosine kinase like …; assay: cell-based or functional assay
# [5] = molecular target: T1, human receptor tyrosine kinase like …; assay: flow cytometry on Jeko-1 cells (FIG. 3B)
# [6] = molecular target: T1, human receptor tyrosine kinase like …; assay: flow cytometry on MDA-MB-231 cells
# [7] = molecular target: T1, human receptor tyrosine kinase like …; assay: flow cytometry on Jeko-1 cells
# [8] = molecular target: T1, human receptor tyrosine kinase like …; assay: binding to Jeko cells; column 'ADC-R Binding KD (nM)', method not described
# [9] = molecular target: T1, human receptor tyrosine kinase like …; assay: binding to Jeko cells; column 'ADC-Q Binding KD (nM)', method not described
binder,measurement,setting,value
B1,EC50,[1],0.0216 µg/mL
same,Kd,[2],0.32 nM
same,Kd,[3],0.1 nM
same,"IC50, cell viability (CellTiter-Glo, 72 h), A2008 cells",[4],125 nM
same,"IC50, cell viability (CellTiter-Glo, 72 h), Bt549 cells",[4],13.5 nM
same,"IC50, cell viability (CellTiter-Glo, 72 h), DOHH2 cells",[4],129 nM
same,"IC50, cell viability (CellTiter-Glo, 72 h), HBL-1 cells",[4],118 nM
same,"IC50, cell viability (CellTiter-Glo, 72 h), HCC1187 cells",[4],6.8 nM
same,"IC50, cell viability (CellTiter-Glo, 72 h), JHOM1 cells",[4],15.6 nM
same,"IC50, cell viability (CellTiter-Glo, 72 h), MDA-MB-468 cells",[4],23.5 nM
same,"IC50, cell viability (CellTiter-Glo, 72 h), SKOvr3 cells",[4],62.6 nM
same,"IC50, cell viability (CellTiter-Glo, 72 h), TMD-8 cells",[4],122 nM
same,"IC50, cell viability (CellTiter-Glo, 72 h), TOV112D cells",[4],62.4 nM
same,EC50,[5],0.0221 µg/mL
same,EC50,[6],0.0485 µg/mL
same,EC50,[7],0.017 µg/mL
B2,Kd,[8],0.25 nM
B3,Kd,[9],0.23 nM
